The text below walks through data of the Human Domainome abundance scans (Beltran et al. 2025).

First the molecules themselves.
B1: V(D)J recombination-activating protein 2, residues 415 to 491; numbered along this chain, P55895 (parent)
chain: YWITCCPTCDVDINTWVPFYSTELNKPAMIYCSHGDGHWVHAQCMDLAERTLIHLSAGSNKYYCNEHVEIARALHTP

± gives the uncertainty stated by the source.

The variants in this data set derive from B1. Kind of data set: abundance fitness (aPCA) (normalised: wild type 0, dead -1); higher = more abundant; growth selection in yeast, the domain comes from the species named. Particulars: Homo sapiens.
Take YWITCCPTCDVDINTWVPFYSTELMKPAMIYCSHGDGHWVHAQCMDLAERTLIHLSAGSNKYYCNEHVEIARALHTP: the abundance fitness was -0.254 ± 0.24.
On to YWITCCPTCDVDINTWVPFYSTELWKPAMIYCSHGDGHWVHAQCMDLAERTLIHLSAGSNKYYCNEHVEIARALHTP, for which the abundance fitness is -0.024 ± 0.2.
Under YWITCCPTCDVDINTWVPFYSTELSKPAMIYCSHGDGHWVHAQCMDLAERTLIHLSAGSNKYYCNEHVEIARALHTP stands -0.042 ± 0.12; under YWITCCPTCDVDINTWVPFYSTELDKPAMIYCSHGDGHWVHAQCMDLAERTLIHLSAGSNKYYCNEHVEIARALHTP, -0.297 ± 0.33.
In the case of YWITCCPTCDVDINTWVPFYSTELHKPAMIYCSHGDGHWVHAQCMDLAERTLIHLSAGSNKYYCNEHVEIARALHTP, the abundance fitness came out at 0.113 ± 0.31.
Under YWITCCPTCDVDINTWVPFYSTELLKPAMIYCSHGDGHWVHAQCMDLAERTLIHLSAGSNKYYCNEHVEIARALHTP stands 0.073 ± 0.14; under YWITCCPTCDVDINTWVPFYYTELNKPAMIYCSHGDGHWVHAQCMDLAERTLIHLSAGSNKYYCNEHVEIARALHTP, -0.027 ± 0.21.
Under YWITCCPTCDVDINTWVPFYWTELNKPAMIYCSHGDGHWVHAQCMDLAERTLIHLSAGSNKYYCNEHVEIARALHTP stands -0.443 ± 0.19; under YWITCCPTCDVDINTWVPFYVTELNKPAMIYCSHGDGHWVHAQCMDLAERTLIHLSAGSNKYYCNEHVEIARALHTP, -0.28 ± 0.12; under YWITCCPTCDVDINTWVPFYSKELNKPAMIYCSHGDGHWVHAQCMDLAERTLIHLSAGSNKYYCNEHVEIARALHTP, 0.052 ± 0.19.
For the variant YWITCCPTCDVDINTWVPFYSPELNKPAMIYCSHGDGHWVHAQCMDLAERTLIHLSAGSNKYYCNEHVEIARALHTP, the abundance fitness is -0.281 ± 0.24.
YWITCCPTCDVDINTWVPFYSAELNKPAMIYCSHGDGHWVHAQCMDLAERTLIHLSAGSNKYYCNEHVEIARALHTP: the abundance fitness was -0.157 ± 0.41.
Take YWITCCPTCDVDINTWVPFYSRELNKPAMIYCSHGDGHWVHAQCMDLAERTLIHLSAGSNKYYCNEHVEIARALHTP: the abundance fitness is -0.23 ± 0.11.
YWITCCPTCDVDINTWVPFYSHELNKPAMIYCSHGDGHWVHAQCMDLAERTLIHLSAGSNKYYCNEHVEIARALHTP: the abundance fitness was determined as 0.216 ± 0.46.
As to YWITCCPTCDVDINTWVPFYSSELNKPAMIYCSHGDGHWVHAQCMDLAERTLIHLSAGSNKYYCNEHVEIARALHTP, the abundance fitness was determined as 0.096 ± 0.18.
Turning to YWITCCPTCDVDINTWVPFYSVELNKPAMIYCSHGDGHWVHAQCMDLAERTLIHLSAGSNKYYCNEHVEIARALHTP, the abundance fitness is -0.062 ± 0.13.
Under YWITCCPTCDVDINTWVPFYSWELNKPAMIYCSHGDGHWVHAQCMDLAERTLIHLSAGSNKYYCNEHVEIARALHTP stands -0.121 ± 0.13; under YWITCCPTCDVDINTWVPFYSMELNKPAMIYCSHGDGHWVHAQCMDLAERTLIHLSAGSNKYYCNEHVEIARALHTP, 0.389 ± 0.36.
Consider YWITCCPTCDVDINTWVPFYSDELNKPAMIYCSHGDGHWVHAQCMDLAERTLIHLSAGSNKYYCNEHVEIARALHTP, for which the abundance fitness is -0.121 ± 0.39.
As for YWITCCPTCDVDINTWVPFYSFELNKPAMIYCSHGDGHWVHAQCMDLAERTLIHLSAGSNKYYCNEHVEIARALHTP, the abundance fitness was -0.181 ± 0.16.
With YWITCCPTCDVDINTWVPFYSCELNKPAMIYCSHGDGHWVHAQCMDLAERTLIHLSAGSNKYYCNEHVEIARALHTP, the abundance fitness is -0.131 ± 0.34.
On to YWITCCPTCDVDINTWVPFYSGELNKPAMIYCSHGDGHWVHAQCMDLAERTLIHLSAGSNKYYCNEHVEIARALHTP, for which the abundance fitness is -0.353 ± 0.17.
For YWITCCPTCDVDINTWVPFYSLELNKPAMIYCSHGDGHWVHAQCMDLAERTLIHLSAGSNKYYCNEHVEIARALHTP, the abundance fitness is -0.179 ± 0.11.
With YWITCCPTCDVDINTWVPFYSTEVNKPAMIYCSHGDGHWVHAQCMDLAERTLIHLSAGSNKYYCNEHVEIARALHTP, the abundance fitness is -0.083 ± 0.12.
Under YWITCCPTCDVDINTWVPFYSTEINKPAMIYCSHGDGHWVHAQCMDLAERTLIHLSAGSNKYYCNEHVEIARALHTP stands -0.156 ± 0.25.
For YWITCCPTCDVDINTWVPFYSTEYNKPAMIYCSHGDGHWVHAQCMDLAERTLIHLSAGSNKYYCNEHVEIARALHTP, the abundance fitness is -0.337 ± 0.32.
As to YWITCCPTCDVDINTWVPFYSTECNKPAMIYCSHGDGHWVHAQCMDLAERTLIHLSAGSNKYYCNEHVEIARALHTP, the abundance fitness was 0.027 ± 0.096.
With YWITCCPTCDVDINTWVPFYSTEMNKPAMIYCSHGDGHWVHAQCMDLAERTLIHLSAGSNKYYCNEHVEIARALHTP the figure was -0.319 ± 0.21; with YWITCCPTCDVDINTWVPFYSTEANKPAMIYCSHGDGHWVHAQCMDLAERTLIHLSAGSNKYYCNEHVEIARALHTP, -0.164 ± 0.15; with YWITCCPTCDVDINTWVPFYSTEENKPAMIYCSHGDGHWVHAQCMDLAERTLIHLSAGSNKYYCNEHVEIARALHTP, 0.296 ± 0.38.
In the case of YWITCCPTCDVDINTWVPFYSTEFNKPAMIYCSHGDGHWVHAQCMDLAERTLIHLSAGSNKYYCNEHVEIARALHTP, the abundance fitness was -0.362 ± 0.3.
For YWITCCPTCDVDINTWVPFYSTEQNKPAMIYCSHGDGHWVHAQCMDLAERTLIHLSAGSNKYYCNEHVEIARALHTP, the abundance fitness was -0.1 ± 0.18.
YWITCCPTCDVDINTWVPFYSTESNKPAMIYCSHGDGHWVHAQCMDLAERTLIHLSAGSNKYYCNEHVEIARALHTP: the abundance fitness was -0.153 ± 0.099.
As for YWITCCPTCDVDINTWVPFYSTETNKPAMIYCSHGDGHWVHAQCMDLAERTLIHLSAGSNKYYCNEHVEIARALHTP, the abundance fitness is -0.081 ± 0.22.
Take YWITCCPTCDVDINTWVPFYSTEPNKPAMIYCSHGDGHWVHAQCMDLAERTLIHLSAGSNKYYCNEHVEIARALHTP: the abundance fitness is -0.56 ± 0.39.
Take YWITCCPTCDVDINTWVPFYSTEWNKPAMIYCSHGDGHWVHAQCMDLAERTLIHLSAGSNKYYCNEHVEIARALHTP: the abundance fitness was -0.305 ± 0.14.
